Measured values from patent EP4682164A1 (Curogen Technology Co., Ltd., dated 2026).
Changes are numbered by the printed parent chain.

T1: wild-type IL-17RC (wtIL-17RC) (human, UniProt Q8NAC3 21-538, limits assumed)
T1 construct: also called IL-17RC wild type
T1 sequence (looked up): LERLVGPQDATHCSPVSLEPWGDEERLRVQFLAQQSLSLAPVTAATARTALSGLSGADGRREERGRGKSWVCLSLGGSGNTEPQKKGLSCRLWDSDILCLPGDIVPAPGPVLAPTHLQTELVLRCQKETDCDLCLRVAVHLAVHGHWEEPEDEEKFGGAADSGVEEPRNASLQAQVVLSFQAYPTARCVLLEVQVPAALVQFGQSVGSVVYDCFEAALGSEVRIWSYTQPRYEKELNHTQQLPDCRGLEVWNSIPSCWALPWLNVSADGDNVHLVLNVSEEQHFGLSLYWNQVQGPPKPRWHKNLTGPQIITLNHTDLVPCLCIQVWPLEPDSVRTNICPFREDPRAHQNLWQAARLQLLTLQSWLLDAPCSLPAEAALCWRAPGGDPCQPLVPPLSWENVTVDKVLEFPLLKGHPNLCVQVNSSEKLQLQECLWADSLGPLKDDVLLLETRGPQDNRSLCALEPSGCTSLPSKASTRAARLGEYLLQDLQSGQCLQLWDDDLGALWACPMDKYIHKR

B1: human IL-17F (IL-17FF homodimer) (ligand, UniProt Q96PD4 31-163, looked up)
chain: RKIPKVGHTFFQKPESCPPVPGGSMKLDIGIINENQRVSMSRNIESRSTSPWNYTVTWDPNRYPSEVVQAQCRNLGCINAQGKEDISMNSVPIQQETLVVRRKHQGCSVSFQLEKVLVTVGCTCVTPVIHHVQ
notes: also called hIL-17F; hIL-17FF
B2: T1-T4-14 (Fc fusion)
chain: LRLLDHRAPVCSQPGLNCTVKNSDCLDDSWIHPRNLTPSSPKDLQIQLHFAHTQQGDLVPVAHIEWTLQTDASILYLEGAELSVLQLDTNERLCVRFEFLSKLRHHHRRWRFTFSHFVVDPGQEYEVTVHHLPKPIPDGDPNHQSKNFLVPDCEHPRMKVTTPCMSSALPWLNVSADGDNVHLVLNVSEEQHFGLSLYWNQVQGPPKPRWHKNLTGPQIITLNHTDLVPCLCIQVWPLEPDSVRTNICPFREDPRAHQNLWQAARLRLLTLQSWLLDAPCSLPAEAALCWRAPGGDPCQPLVPPLSWENVTVDKVLEFPLLKGHPNLCVQVNSSEKLQLQECLWADSLGPLKDDVLLLETRGPQDNRSLCALEPSGCTSLPSKASTRAARLGEYLLQDLQSGQCLQLWDDDLGALWACPMDKYIHKTGIEGRMDRNTGRGGEEKKKEKEKEEQEERETKTPECPSHTQPLGVFLFPPKPKDTLMISRTPEVTCVVVDVSQEDPEVQFNWYVDGVEVHNAKTKPREEQFNSTYRVVSVLTVLHQDWLNGKEYKCKVSNKGLPSSIEKTISKAKGQPREPQVYTLPPSQEEMTKNQVSLTCLVKGFYPSDIAVEWESNGQPENNYKTTPPVLDSDGSFFLYSRLTVDKSRWQEGNVFSCSVMHEALHNHYTQKSLSLSLGKGGGGSGGGGSGGGGSLELPAQVAFTPYAPEPGSTCRLREYYDQTAQMCCAKCPPGQHAKVFCTKTSDTVCDSCEDSTYTQLWNWVPECLSCSSRCSSDQVETQACTREQNRICTCRPGWYCALSKQEGCRLCAPLSKCRPGFGVARPGTETSDVVCKPCAPGTFSNTTSSTDICRPHQICSVVAIPGNASMDAVCTSTSPTRSMAPGAVHLPQPVSTRSQHTQPTPGPSTAPSTSILLPMGPSPPAEGSTGD
notes: also called T1c-Fc-T4g; IL-17RA/RC-Fc-TNFR2 (T1-T4-14)
B3: T1-T4-11 (Fc fusion)
chain: B2 chain with S771G, G906E, I915F
notes: also called T1c-Fc-T4d; IL-17RA/RC-Fc-TNFR2
B4: T1-T4-30 (Fc fusion)
chain: B2 chain with A729S, P732S, S815R, S860N, G906E, I915F
B5: T1-T4-10 (Fc fusion)
chain: B2 chain with S771G, S860N, G906E, I915F
notes: also called T1c-Fc-T4c; IL-17RA/RC-Fc-TNFR2
B6: T1-T4-09 (Fc fusion)
chain: B2 chain with S771G, S815R, S860N, G906E, I915F
notes: also called T1-T4-9; T1c-Fc-T4b
B7: T1-T4-12 (Fc fusion)
chain: B2 chain with S771G, I915F
notes: also called T1c-Fc-T4e; IL-17RA/RC-Fc-TNFR2
B8: T1-T4-07 (Fc fusion)
chain: B2 chain with A729S, P732S, S771G, S815R, S860N, G906E, I915F
notes: also called T1c-Fc-T4wt; IL-17RA/RC-Fc-TNFR2
B9: T1-T4-08 (Fc fusion)
chain: B2 chain with P732S, S771G, S815R, S860N, G906E, I915F
notes: also called T1-T4-8; T1c-Fc-T4a
B10: T1-T4-14+GT6 (glycan sialylated T1-T4-14) (Fc fusion)
chain: B2 chain
modifications: glycan sialylation (co-expressed with B4GALT6, fed with UMnG and ManNAc)
notes: Same polypeptide as T1-T4-14, with increased sialylation; also called T1-T4-14 produced in pcDNA3.4+GT6; glycan sialylated IL-17RA/RC-Fc-TNFR2
B11: T1-T4-32 (Fc fusion)
chain: B2 chain with H665K, N666F
notes: also called T1c-Fcb-T4g; IL-17RA/RC-Fc-TNFR2
B12: T1-T4-13 (Fc fusion)
chain: B2 chain with S771G
notes: also called T1c-Fc-T4f; IL-17RA/RC-Fc-TNFR2
B13: T1-T4-14 produced in pcDNA3.4 (Fc fusion)
chain: B2 chain
notes: Same named protein as T1-T4-14 but expressed from the pcDNA3.4 vector; also called IL-17RA/RC-Fc-TNFR2
B14: T1-T4-31 (Fc fusion)
chain: B2 chain with M484Y, S486T, T488E
notes: also called T1c-Fca-T4g; IL-17RA/RC-Fc-TNFR2
B15: T1-T4-06 (Fc fusion)
chain: B2 chain with P156A, A729S, P732S, S771G, S815R, S860N, G906E, I915F
notes: also called T1b-Fc-T4wt; IL-17RA/RC-Fc-TNFR2

How the values were obtained:
[1] = target: T1, wild-type IL-17RC (wtIL-17RC); test: binding affinity analysis of Table 12 (Octet BLI as described in Example 5)
[2] = target: T2, human IL-17A (IL-17AA homodimer) (human, UniProt Q16552 20-155, limits assumed); test: ELISA
T2 construct: also called hIL-17A; hIL-17AA

[3] = target: B1; test: ELISA
human TNFα [4] = target: T3, human TNFα (human, UniProt P01375 77-233); test: ELISA
T3 construct: also called hTNFα

[5] = target: T2, human IL-17A (IL-17AA homodimer); test: cell-based or functional assay
[6] = target: B1; test: cell-based or functional assay
human TNFα [7] = target: T3, human TNFα; test: cell-based or functional assay
[8] = target: T2, human IL-17A (IL-17AA homodimer); test: ELISA, cytokine coated on plate, binder titrated, HRP secondary antibody
[9] = target: B1; test: as above
human TNFα [10] = target: T3, human TNFα; test: as above

T3 sequence (P01375 77-233 limits assumed): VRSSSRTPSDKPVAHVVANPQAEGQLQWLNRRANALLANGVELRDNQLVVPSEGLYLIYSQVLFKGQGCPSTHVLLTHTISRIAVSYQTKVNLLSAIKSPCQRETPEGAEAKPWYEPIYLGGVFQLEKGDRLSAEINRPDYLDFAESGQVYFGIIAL
T2 sequence (Q16552 20-155 limits assumed): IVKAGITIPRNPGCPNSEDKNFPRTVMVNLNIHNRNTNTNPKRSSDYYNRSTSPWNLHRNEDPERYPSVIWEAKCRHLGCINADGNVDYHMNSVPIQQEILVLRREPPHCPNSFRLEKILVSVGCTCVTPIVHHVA

B1
Kd [1]: 4 nM

B2
EC50 [2]: 0.0752 µg/mL
EC50 [3]: 0.0702 µg/mL
EC50 (human TNFα [4]): 0.068 µg/mL
IC50 (ng/mL) of hIL-17A, SEAP reporter assay in HEK-Blue IL-17 cells [5]: 20.9 ng/mL
IC50 (ng/mL) of hIL-17F, SEAP reporter assay in HEK-Blue IL-17 cells [6]: 1150 ng/mL
IC50 (ng/mL) of hTNFα, SEAP reporter assay in HEK-Blue TNFα cells (human TNFα [7]): 14.9 ng/mL
EC50 [8]: 0.00924 µg/mL
EC50 [9]: 0.13 µg/mL
EC50 (human TNFα [10]): 0.0438 µg/mL

B3
EC50 [8]: 0.0106 µg/mL

B4
IC50 (ng/mL) of hIL-17A, SEAP reporter assay in HEK-Blue IL-17 cells [5]: 23.7 ng/mL
IC50 (ng/mL) of hIL-17F, SEAP reporter assay in HEK-Blue IL-17 cells [6]: 1030 ng/mL

B5
EC50 [8]: 0.0106 µg/mL

B6
EC50 [8]: 0.0087 µg/mL

B7
IC50 (ng/mL) of hIL-17A, SEAP reporter assay in HEK-Blue IL-17 cells [5]: 19.9 ng/mL
IC50 (ng/mL) of hTNFα, SEAP reporter assay in HEK-Blue TNFα cells (human TNFα [7]): 116 ng/mL
EC50 [8]: 0.00841 µg/mL

B8
IC50 (ng/mL) of hIL-17A, SEAP reporter assay in HEK-Blue IL-17 cells [5]: 24.4 ng/mL
IC50 (ng/mL) of hIL-17F, SEAP reporter assay in HEK-Blue IL-17 cells [6]: 2740 ng/mL
IC50 (ng/mL) of hTNFα, SEAP reporter assay in HEK-Blue TNFα cells (human TNFα [7]): 354 ng/mL
EC50 [8]: 0.00706 µg/mL
EC50 [9]: 0.183 µg/mL
EC50 (human TNFα [10]): 2.04 µg/mL

B9
EC50 [8]: 0.0126 µg/mL

B10
EC50 [2]: 0.0543 µg/mL
EC50 [3]: 0.0621 µg/mL
EC50 (human TNFα [4]): 0.0443 µg/mL

B11
IC50 (ng/mL) of hIL-17A, SEAP reporter assay in HEK-Blue IL-17 cells [5]: 20.5 ng/mL
IC50 (ng/mL) of hIL-17F, SEAP reporter assay in HEK-Blue IL-17 cells [6]: 1260 ng/mL
EC50 (human TNFα [10]): 0.0406 µg/mL

B12
IC50 (ng/mL) of hIL-17A, SEAP reporter assay in HEK-Blue IL-17 cells [5]: 26.9 ng/mL
IC50 (ng/mL) of hTNFα, SEAP reporter assay in HEK-Blue TNFα cells (human TNFα [7]): 138 ng/mL
EC50 [8]: 0.0092 µg/mL

B13
EC50 [2]: 0.0607 µg/mL
EC50 [3]: 0.0455 µg/mL
EC50 (human TNFα [4]): 0.0873 µg/mL

B14
IC50 (ng/mL) of hIL-17A, SEAP reporter assay in HEK-Blue IL-17 cells [5]: 15.3 ng/mL
IC50 (ng/mL) of hIL-17F, SEAP reporter assay in HEK-Blue IL-17 cells [6]: 1240 ng/mL
EC50 [9]: 0.0853 µg/mL
EC50 (human TNFα [10]): 0.0627 µg/mL

B15
IC50 (ng/mL) of hIL-17A, SEAP reporter assay in HEK-Blue IL-17 cells [5]: 24.7 ng/mL
IC50 (ng/mL) of hIL-17F, SEAP reporter assay in HEK-Blue IL-17 cells [6]: 2230 ng/mL
IC50 (ng/mL) of hTNFα, SEAP reporter assay in HEK-Blue TNFα cells (human TNFα [7]): 249 ng/mL
EC50 [8]: 0.0103 µg/mL
EC50 (human TNFα [10]): 0.0233 µg/mL
